# Publication PMC10899789
# pKd: −log10 of the molar value.
# Legend:
# Details in all cases: 50 mM Tris-HCl pH 7.5, 50 mM NaCl, 10 mM MgCl2; SV at 20 C, SE under same conditions (5000 rpm, 260 nm)
# [1] = biological target: T1, p6CΔ20 del85-104 (Bacillus subtilis phage phi29) (UniProt P03685); test: sedimentation equilibrium
# T1 sequence: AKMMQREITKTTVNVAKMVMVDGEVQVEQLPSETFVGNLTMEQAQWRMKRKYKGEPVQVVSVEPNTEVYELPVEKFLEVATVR
# [2] = biological target: T2, p6 wt (Bacillus subtilis phage phi29) (UniProt P03685); test: sedimentation equilibrium
# T2 sequence: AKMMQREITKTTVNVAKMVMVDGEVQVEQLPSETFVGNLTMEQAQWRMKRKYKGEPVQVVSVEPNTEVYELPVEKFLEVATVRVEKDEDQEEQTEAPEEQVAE
# [3] = biological target: T1, p6CΔ20 del85-104 (Bacillus subtilis phage phi29); test: sedimentation velocity
sequence,measurement,setting,value
GCCCACATACTTTGTTGATTGGTTGTCAATCATGGCAAAAGTGCACGCTACTTTGATAACCTTTTACATGCGACACAGACGAAGCGCTAAAACGTGGGATTCTGTGTCGTTTTATGTTGTTCATTGACAAACCTATCTAGTAGGTCTATAGATTGATATATTAAGTAGTAGTTTCCCTCCCTGATCATGGTATGCCGAGGATCGACGGATTATGTCGATATTAGGAGAATGGTATCATGTGAGGGTGGGGGCTTACTTT (double strand) [L fragment (DNA-L)],pKd,[1],5.83
same,pKd,[2],5.61
same,binding,[3],binds
